In US6593098 (FOX CHASE CANCER CENTER, dated 2003):
One block for each binder: values may come before it.

Experiments:
human BUB1A kinase = target: T1, human BUB1A kinase (human, UniProt O60566 1-1050, hyperphosphorylated in mitotically arrested cells (P-ser and P-thr the major phosphoamino acids; positions not given)); assay: specificity test, method not named in the sentence (probably yeast two-hybrid)
T1 construct: Endogenous huBUB1A immunoprecipitated or blotted from Hela lysates; also called huBUB1A; hUBUB1A

CENP-E = target: T2, CENP-E (human, UniProt Q02224 1-2698, limits assumed); assay: as above
T2 construct: Endogenous Hela protein in the immunoprecipitations; also called CENP-E kinetochore motor; endogenous CENP-E
T2 sequence (Q02224 1-2698 limits assumed): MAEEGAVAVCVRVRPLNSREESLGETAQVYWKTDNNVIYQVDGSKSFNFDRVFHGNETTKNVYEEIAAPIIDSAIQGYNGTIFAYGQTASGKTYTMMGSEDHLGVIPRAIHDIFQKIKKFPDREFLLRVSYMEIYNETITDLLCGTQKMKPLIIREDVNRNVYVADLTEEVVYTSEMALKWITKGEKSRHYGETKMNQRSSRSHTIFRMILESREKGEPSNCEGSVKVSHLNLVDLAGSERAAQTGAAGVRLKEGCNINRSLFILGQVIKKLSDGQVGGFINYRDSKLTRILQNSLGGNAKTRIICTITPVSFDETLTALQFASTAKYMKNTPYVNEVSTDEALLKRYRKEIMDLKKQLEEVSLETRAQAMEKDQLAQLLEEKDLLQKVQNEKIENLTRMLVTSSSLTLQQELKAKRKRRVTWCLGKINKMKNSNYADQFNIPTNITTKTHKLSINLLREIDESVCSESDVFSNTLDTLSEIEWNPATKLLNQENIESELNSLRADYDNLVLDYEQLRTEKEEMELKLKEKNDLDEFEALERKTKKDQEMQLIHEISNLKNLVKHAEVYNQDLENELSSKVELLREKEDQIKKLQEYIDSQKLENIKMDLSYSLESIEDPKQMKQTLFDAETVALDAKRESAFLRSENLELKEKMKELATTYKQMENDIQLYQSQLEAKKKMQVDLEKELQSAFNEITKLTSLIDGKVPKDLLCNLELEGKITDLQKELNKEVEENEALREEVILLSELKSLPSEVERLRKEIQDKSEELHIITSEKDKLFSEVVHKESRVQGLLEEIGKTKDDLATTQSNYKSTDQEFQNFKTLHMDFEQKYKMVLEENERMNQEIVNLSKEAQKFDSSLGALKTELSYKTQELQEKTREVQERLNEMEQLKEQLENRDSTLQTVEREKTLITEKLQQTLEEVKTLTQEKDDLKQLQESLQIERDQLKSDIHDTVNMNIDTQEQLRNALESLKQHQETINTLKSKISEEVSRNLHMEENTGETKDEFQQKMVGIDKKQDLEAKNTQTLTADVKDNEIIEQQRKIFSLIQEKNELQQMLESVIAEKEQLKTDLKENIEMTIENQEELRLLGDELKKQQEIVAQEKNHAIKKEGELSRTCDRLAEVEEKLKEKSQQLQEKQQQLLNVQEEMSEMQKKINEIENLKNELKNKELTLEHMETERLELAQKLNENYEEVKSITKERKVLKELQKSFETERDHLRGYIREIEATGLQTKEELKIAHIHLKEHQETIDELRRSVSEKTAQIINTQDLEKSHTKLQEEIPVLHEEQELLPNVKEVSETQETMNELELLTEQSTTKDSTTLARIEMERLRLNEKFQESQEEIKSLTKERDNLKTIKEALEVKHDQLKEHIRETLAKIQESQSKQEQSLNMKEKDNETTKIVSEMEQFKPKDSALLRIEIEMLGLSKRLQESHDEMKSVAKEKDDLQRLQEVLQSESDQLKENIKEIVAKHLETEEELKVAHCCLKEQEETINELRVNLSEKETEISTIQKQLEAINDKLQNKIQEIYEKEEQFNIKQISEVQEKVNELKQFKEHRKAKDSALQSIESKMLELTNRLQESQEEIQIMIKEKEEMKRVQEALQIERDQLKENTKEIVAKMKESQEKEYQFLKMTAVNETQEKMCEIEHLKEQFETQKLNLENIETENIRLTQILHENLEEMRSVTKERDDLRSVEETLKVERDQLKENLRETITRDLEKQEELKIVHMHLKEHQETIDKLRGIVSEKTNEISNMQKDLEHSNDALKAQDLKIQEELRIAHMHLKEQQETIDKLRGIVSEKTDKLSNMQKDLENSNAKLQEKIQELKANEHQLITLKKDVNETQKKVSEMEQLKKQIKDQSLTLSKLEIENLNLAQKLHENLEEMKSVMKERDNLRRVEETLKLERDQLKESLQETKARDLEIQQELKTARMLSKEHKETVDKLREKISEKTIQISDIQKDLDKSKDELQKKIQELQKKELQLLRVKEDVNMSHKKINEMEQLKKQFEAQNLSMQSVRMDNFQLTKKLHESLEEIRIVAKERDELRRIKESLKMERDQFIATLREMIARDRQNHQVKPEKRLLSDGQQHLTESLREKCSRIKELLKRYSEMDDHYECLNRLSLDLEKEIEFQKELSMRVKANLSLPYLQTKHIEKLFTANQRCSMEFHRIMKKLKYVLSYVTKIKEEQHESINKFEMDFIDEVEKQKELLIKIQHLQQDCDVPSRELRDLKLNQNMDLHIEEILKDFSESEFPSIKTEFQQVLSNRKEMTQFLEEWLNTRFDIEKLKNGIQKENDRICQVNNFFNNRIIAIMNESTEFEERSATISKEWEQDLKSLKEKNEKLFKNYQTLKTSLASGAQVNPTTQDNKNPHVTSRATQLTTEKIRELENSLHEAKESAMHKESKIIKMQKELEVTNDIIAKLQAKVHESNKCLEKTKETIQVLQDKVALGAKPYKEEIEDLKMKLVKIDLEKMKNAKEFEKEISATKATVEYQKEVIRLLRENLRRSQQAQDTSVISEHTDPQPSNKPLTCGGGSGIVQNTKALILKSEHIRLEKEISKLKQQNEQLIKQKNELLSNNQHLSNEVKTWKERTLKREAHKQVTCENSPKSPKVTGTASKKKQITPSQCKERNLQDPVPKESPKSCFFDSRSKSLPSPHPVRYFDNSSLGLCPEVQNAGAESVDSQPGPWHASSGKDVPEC

T1 sequence (O60566 whole entry R349Q/E1018K): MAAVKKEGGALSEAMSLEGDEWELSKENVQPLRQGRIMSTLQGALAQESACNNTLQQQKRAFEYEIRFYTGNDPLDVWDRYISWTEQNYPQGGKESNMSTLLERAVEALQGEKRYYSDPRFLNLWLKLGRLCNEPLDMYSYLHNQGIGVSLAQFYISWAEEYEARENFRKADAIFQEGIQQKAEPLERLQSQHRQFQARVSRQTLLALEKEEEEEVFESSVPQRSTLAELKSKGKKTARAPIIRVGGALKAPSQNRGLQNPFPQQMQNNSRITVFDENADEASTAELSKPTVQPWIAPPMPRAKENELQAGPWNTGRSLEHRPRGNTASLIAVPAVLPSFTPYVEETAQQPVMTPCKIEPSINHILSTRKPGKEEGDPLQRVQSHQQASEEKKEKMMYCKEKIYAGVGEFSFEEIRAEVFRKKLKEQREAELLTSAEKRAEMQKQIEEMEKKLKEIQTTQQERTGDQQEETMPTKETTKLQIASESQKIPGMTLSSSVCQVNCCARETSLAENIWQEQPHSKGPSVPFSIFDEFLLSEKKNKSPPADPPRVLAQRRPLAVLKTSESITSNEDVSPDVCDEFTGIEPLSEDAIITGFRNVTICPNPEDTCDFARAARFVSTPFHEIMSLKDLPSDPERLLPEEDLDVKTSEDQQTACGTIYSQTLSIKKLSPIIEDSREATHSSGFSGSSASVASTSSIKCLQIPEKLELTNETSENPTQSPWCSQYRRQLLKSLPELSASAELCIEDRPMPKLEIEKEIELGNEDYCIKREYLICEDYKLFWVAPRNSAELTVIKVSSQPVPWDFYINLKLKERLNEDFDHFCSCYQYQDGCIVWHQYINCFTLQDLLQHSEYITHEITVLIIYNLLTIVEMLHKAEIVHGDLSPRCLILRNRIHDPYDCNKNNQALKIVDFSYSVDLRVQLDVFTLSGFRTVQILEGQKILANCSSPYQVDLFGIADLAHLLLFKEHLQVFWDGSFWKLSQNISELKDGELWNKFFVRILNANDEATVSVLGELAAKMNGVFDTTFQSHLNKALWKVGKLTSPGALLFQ

binding result (human BUB1A kinase): no binding
B1: CENP-F (other, UniProt P49454 2542-3114, looked up)
chain: SQVEGEHQLWKEQNLELRNLTVELEQKIQVLQSKNASLQDTLEVLQSSYKNLENELELTKMDKMSFVEKVNKMTAKETELQREMHEMAQKTAELQEELSGEKNRLAGELQLLLEEIKSSKDQLKELTLENSELKKSLDCMHKDQVEKEGKVREEIAEYQLRLHEAEKKHQALLLDTNKQYEVEIQTYREKLTSKEECLSSQKLEIDLLKSSKEELNNSLKATTQILEELKKTKMDNLKYVNQLKKENERAQGKMKLLIKSCKQLEEEKEILQKELSQLQAAQEKQKTGTVMDTKVDELTTEIKELKETLEEKTKEADEYLDKYCSLLISHEKLEKAKEMLETQVAHLCSQQSKQDSRGSPLLGPVVPGPSPIPSVTEKRLSSGQNKASGKRQRSSGIWENGRGPTPATPESFSKKSKKAVMSGIHPAEDTEGTEFEPEGLPEVVKKGFADIPTGKTSPYILRRTTMATRTSPRLAAQKLALSPLSLGKENLAESSKPTAGGSRSQKVKVAQRSPVDSGTILREPTTKSVPVNNLPERSPTDSPREGLRVKRGRLVPSPKAGLESNGSENCKVQ

binding result (CENP-E): no binding
B2: human BUB1B kinase (enzyme)
chain: MDTPENVLQMLEAHMQSYKGNDPLGEWERYIQWVEENFPENKEYLITLLEHLMKEFLDKKKYHNDPRFISYCLKFAEYNSDLHQFFEFLYNHGIGTLSSPLYIAWAGHLEAQGELQHASAVLQRGIQNQAEPREFLQQQYRLFQTRLTETHLPAQARTSEPLHNVQVLNQMITSKSNPGNNMACISKNQGSELSGVISSACDKESNMERRVITISKSEYSVHSSLASKVDVEQVVMYCKEKLIRGESEFSFEELRAQKYNQRRKHEQWVNEDRHYMKRKEANAFEEQLLKQKMDELHKKLHQVVETSHEDLPASQERSEVNPARMGPSVGSQQELRAPCLPVTYQQTPVNMEKNPREAPPVVPPLANAISAALVSPATSQSIAPPVPLKAQTVTDSMFAVASKDAGCVNKSTHEFKPQSGAEIKEGCETHKVANTSSFHTTPNTSLGMVQATPSKVQPSPTVHTKEALGFIMNMFQAPTLPDISDDKDEWQSLDQNEDAFEAQFQKNVRSSGAWGVNKIISSLSSAFHVFEDGNKENYGLPQPKNKPTGARTFGERSVSRLPSKPKEEVPHAEEFLDDSTVWGIRCNKTLAPSPKSPGDFTSAAQLASTPFHKLPVESVHILEDKENVVAKQCTQATLDSCEENMVVPSRDGKFSPIQEKSPKQALSSHMYSASLLRLSQPAAGGVLTCEAELGVEACRLTDTDAAIAEDPPGSAAIAEDPPDAIAGLQAEWMQMSSLGTVDAPNFIVGNPWDDKLIFKLLSGLSKPVSSYPNTFEWQCKLPAIKPKTEFQLGSKLVYVHHLLGEGAFAQVYEATQGDLNDAKNKQKFVLKVQKPANPWEFYIGTQLMERLKPSMQHMFMKFYSAHLFQNGSVLVGELYSYGTLLNAINLYKNTPEKVMPQGLVISFAMRMLYMIEQVHDCEIIHGDIKPDNFILGNGFLEQDDEDDLSAGLALIDLGQSIDMKLFPKGTIFTAKCETSGFQCVEMLSNKPWNYQIDYFGVAATVYCMLFGTYMKVKNEGGECKPEGLFRRLPHLDMWNEFFHVMLNIPDCHHLPSLDLLRQKLKKVFQQHYTNKIRALRNRLIVLLLECKRSRK
notes: Endogenous protein in the immunoprecipitations; also called huBUB1B
